Assay [1] deals with T1, hDII1-hFc (human delta-like ligand 1 fused to human Fc) (human, UniProt O00548 18-544).
T1 construct: not shown: human Fc
T1 sequence: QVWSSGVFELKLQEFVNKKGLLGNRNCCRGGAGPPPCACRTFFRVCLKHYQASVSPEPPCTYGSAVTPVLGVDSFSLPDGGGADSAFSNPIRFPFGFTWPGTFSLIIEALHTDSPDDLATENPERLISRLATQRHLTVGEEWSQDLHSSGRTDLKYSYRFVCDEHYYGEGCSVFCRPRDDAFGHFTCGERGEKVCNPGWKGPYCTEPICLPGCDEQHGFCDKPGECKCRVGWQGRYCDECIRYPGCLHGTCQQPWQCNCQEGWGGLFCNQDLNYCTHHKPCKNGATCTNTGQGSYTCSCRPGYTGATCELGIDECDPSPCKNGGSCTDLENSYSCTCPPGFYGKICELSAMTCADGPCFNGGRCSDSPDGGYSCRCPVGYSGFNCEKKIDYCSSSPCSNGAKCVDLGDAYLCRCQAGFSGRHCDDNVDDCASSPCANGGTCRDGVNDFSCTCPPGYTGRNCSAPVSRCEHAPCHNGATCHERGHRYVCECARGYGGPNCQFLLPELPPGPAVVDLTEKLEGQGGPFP
Put plainly: SPR BIACORE; antibody captured by anti-human kappa; hDII1-hFc analyte. As to the method:
Cross-reactivity of the antibodies to human delta-like ligand1 (SEQ ID NO:953) and human delta-like ligand 3 (SEQ ID NO:954) proteins was determined.

For assay [2], the target named is T2, hDII3-hFc (human delta-like ligand 3 fused to human Fc) (human, UniProt Q9NYJ7 27-490).
T2 construct: not shown: human Fc
T2 sequence: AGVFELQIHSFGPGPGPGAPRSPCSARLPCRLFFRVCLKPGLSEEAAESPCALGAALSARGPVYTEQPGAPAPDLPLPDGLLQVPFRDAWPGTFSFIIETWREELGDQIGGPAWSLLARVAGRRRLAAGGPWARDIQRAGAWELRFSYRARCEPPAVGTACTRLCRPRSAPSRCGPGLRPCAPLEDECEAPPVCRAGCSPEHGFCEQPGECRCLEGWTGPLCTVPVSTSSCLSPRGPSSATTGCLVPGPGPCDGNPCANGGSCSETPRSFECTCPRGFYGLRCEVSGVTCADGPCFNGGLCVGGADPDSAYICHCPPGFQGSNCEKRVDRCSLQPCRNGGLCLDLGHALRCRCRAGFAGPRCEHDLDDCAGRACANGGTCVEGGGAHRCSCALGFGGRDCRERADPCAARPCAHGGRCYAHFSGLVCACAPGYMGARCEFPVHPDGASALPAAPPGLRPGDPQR
Put plainly: OCTET; antibody captured by biotin-anti-hK on streptavidin biosensor. The method, then: Briefly, strepavidin high binding FA biosensors (ForteBio, Inc., Menlo Park, Calif.) were first incubated with biotin-anti-hK at 5 μg/ml for 10 min at 30° C., to achieve saturation. […] Changes in the thickness of the biological layer after each incubation were measured.

For assay [3], the target named is T3, monomeric hDII4 (human delta-like ligand 4) (human, UniProt Q9NR61 27-524).
T3 construct: also called monomeric DII4 protein
Put plainly: SPR BIACORE; antibody captured by anti-hFc; monomeric DII4 analyte. The method, then:
Equilibrium dissociation constants (KD values) for antigen binding to the selected antibodies described above were determined by surface kinetics on a real-time biosensor surface plasmon resonance assay (BIACORE™ 2000). The antibody was captured on a goat anti-mouse IgG polyclonal antibody surface created through direct chemical coupling to a BIACORE™ chip to form a captured antibody surface. […] Kinetic analysis was performed to calculate KD, dissociation rate constants, and half-life of antigen/antibody complex dissociation (Table 1). […] Antibodies were presented by goat anti-hFc polyclonal antibody reagent (Jackson Immuno Research Lab) immobilized on BIACORE™ chip, and exposed to either dimeric DII4-mFc or monomeric DII4 protein (Table 2).
On the technique in general: Surface plasmon resonance follows binding to a sensor surface in real time, without labels.

Assay [4] addresses hDII4 on cells (DII4 expressing HUVEC; engineered C6 rat glioma cells expressing hDII4) (human, UniProt Q9NR61 27-685). Nature of the assay: cell-based or functional assay.
The target in assay [5] is T4, hDII4-mFc (human, UniProt Q9NR61 27-524).
T4 construct: also called dimeric DII4-mFc; not shown: mouse Fc
Put plainly: SPR BIACORE; antibody captured by anti-hFc; dimer analyte.

The target of assay [6] is T5, mmDII4-mFc (M. mulatta, UniProt Q9NR61 27-524 (human entry)).
T5 construct: also called mmDII4 dimer; not shown: mouse Fc
T5 chain: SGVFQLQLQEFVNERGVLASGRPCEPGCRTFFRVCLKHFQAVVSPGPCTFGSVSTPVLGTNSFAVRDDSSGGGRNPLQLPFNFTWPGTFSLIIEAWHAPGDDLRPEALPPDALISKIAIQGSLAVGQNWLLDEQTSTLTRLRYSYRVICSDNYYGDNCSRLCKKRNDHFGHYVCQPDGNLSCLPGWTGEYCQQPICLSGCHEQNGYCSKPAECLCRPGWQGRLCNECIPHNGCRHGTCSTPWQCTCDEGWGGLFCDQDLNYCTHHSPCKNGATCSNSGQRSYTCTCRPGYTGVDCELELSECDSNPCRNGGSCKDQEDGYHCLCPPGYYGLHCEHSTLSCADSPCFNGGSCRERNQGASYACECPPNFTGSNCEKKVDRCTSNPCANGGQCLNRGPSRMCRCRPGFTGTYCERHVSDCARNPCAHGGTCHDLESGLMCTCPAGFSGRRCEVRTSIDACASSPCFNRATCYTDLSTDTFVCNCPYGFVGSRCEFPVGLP
Described as above.

Assay [7] deals with T6, dimeric hDII4-hFc (human, UniProt Q9NR61 27-524, biotin in Example 3 (biotin-DII4-hFc), site not stated).
T6 construct: also called DII4-Fc; biotin-DII4-hFc; not shown: human Fc
Nature of the assay: competition ELISA; antibody titrated against 25 pM biotin-DII4-hFc; free biotin-DII4-hFc on Notch-hFc plate. As to the method: The ability of the antibodies to block DII4 binding to Notch was evaluated with an ELISA-based immunoassay. Briefly, Notch-hFc recombinant protein was coated on a 96-well plate in PBS buffer overnight at 4° C. at […], and the nonspecific binding sites were blocked with BSA.
In general terms: In an ELISA, binding on a coated surface is turned into a signal by an enzyme label.

For assay [8], the target named is T2, hDII3-hFc (human delta-like ligand 3 …). Nature of the assay: SPR BIACORE; ligand amine-coupled to CM-5 chip; antibody injected. The source says: An alternative BIACORE™ format was used to assess cross-reactivity between anti-hDII4 antibody and either hDII1-hFc or hDII3-hFc.

hDII4 on cells (DII4 expressing HUVEC; engineered C6 rat glioma cells expressing hDII4), sequence (Q9NR61 27-685 limits assumed, change not shown): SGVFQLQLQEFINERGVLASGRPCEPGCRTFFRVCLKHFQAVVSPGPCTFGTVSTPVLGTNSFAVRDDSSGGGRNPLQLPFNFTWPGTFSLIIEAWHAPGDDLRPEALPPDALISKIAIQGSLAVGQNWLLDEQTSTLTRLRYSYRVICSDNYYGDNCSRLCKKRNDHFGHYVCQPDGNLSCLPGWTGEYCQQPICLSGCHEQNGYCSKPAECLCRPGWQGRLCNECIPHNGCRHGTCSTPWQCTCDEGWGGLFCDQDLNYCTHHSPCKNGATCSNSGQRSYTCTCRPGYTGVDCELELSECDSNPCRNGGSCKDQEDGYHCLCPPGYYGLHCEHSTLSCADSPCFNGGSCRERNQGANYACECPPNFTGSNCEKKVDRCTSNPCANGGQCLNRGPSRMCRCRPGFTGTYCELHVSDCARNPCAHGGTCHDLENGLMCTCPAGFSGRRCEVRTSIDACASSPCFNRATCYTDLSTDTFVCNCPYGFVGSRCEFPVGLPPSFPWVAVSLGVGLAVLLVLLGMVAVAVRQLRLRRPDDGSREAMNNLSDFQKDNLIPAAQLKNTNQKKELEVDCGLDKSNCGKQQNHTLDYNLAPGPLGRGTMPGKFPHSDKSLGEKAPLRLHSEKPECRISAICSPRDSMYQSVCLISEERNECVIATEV

B1: 318518-01A10-D8 (antibody, human IgG1)
heavy: not shown
VL: EIVMTQSPATLSLSPGERATLSCRASQSVSSYLAWYQQKPGQAPRLLIYDASNRATGIPARFSGSGSGTDFTLTISSLEPEDFAVYYCQHRSNWPPTFGGGTKVEIK
notes: HCVR 429 with hIgG1 constant region 950; also called REGN281; 318518-1A10-D8
For B1, the binding result in assay [1] was “no binding (tested: 100 µg/ml)”. Also, in assay [2], the binding result is recorded as “no binding (tested: 200 nM)”. This molecule had a Kd in assay [3] of 0.399 nM. In addition, in assay [4], the “EphrinB2 Expression IC50” value was 0.305 nM and the “Hes1 Expression IC50” value was found to be 0.329 nM. In assay [5], this molecule registered a Kd of 0.0163 nM, a koff of 4.96e-06 s⁻¹ and a kon of 302000 M⁻¹ s⁻¹. Further, in assay [6], the affinity, expressed as Kd, was 0.0147 nM; the koff was found to be 4.64e-06 s⁻¹; the kon was 316000 M⁻¹ s⁻¹. Further, the IC50 in assay [7] was 0.05 nM.

B2: REGN422 (antibody, human IgG4 S228P)
heavy: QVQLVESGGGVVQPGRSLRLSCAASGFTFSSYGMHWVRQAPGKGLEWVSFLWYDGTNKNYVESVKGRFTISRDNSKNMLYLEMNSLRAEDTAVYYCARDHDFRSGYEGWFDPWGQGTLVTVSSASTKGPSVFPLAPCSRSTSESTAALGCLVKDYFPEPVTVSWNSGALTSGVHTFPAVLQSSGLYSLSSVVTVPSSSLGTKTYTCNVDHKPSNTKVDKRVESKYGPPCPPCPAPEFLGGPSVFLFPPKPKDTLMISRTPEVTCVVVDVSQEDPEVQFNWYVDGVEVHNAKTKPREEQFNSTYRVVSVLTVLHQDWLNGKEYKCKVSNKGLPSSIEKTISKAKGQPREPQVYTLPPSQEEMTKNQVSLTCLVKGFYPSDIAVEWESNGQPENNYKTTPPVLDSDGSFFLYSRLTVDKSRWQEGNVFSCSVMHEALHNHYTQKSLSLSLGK
VL: EIVLTQSPATLSLSPGERATLSCRASQSVSSYLAWYQQKPGQAPRLLIYDASNRATGIPARFSGSGSGTDFTLTISSLEPEDFAVYYCQHRSNWPPTFGGGTKVEIK
notes: HCVR 901 with modified hIgG4 constant region 952
Turning to B2, in assay [1], the binding result is “no binding (tested: 100 µg/ml)”. For the same molecule, the binding result in assay [8] is reported as “no binding (tested: 300 µg/ml)”. Further, in assay [5], the Kd was found to be 0.0133 nM, the koff came to 4.6e-06 s⁻¹ and the on-rate (kon) worked out at 346000 M⁻¹ s⁻¹. Besides, in assay [6], binding was put at a Kd of 0.0098 nM, the koff stood at 4.15e-06 s⁻¹ and the kon turned out to be 423000 M⁻¹ s⁻¹.

B3: REGN421 (antibody, human IgG1)
heavy: not shown
VL: EIVLTQSPATLSLSPGERATLSCRASQSVSSYLAWYQQKPGQAPRLLIYDASNRATGIPARFSGSGSGTDFTLTISSLEPEDFAVYYCQHRSNWPPTFGGGTKVEIK
notes: HCVR 901 with hIgG1 constant region 950
For the molecule B3, the binding result in assay [1] is “no binding (tested: 100 µg/ml)”. Also, in assay [8], the binding result was “no binding (tested: 300 µg/ml)”. In assay [5], this molecule gave a Kd of 0.0137 nM, a koff of 4.7e-06 s⁻¹ and a kon of 343000 M⁻¹ s⁻¹. For the same molecule, in assay [6], binding was put at a Kd of 0.013 nM, the koff was 3.8e-06 s⁻¹ and the kon turned out to be 335000 M⁻¹ s⁻¹.

For orientation: Kd means a measure of binding affinity in units of concentration. The low end stands for a tighter complex, the high end for a looser complex. Usually koff stands for the first-order rate constant of dissociation. Read a high koff as fast dissociation. What is called kon is the rate constant with which the complex forms. Low values mean slower complex formation, high ones faster complex formation. One may read the IC50 as the concentration at which inhibition is half-maximal.

The values above are taken from patent US20080181899A1 (Regeneron, published 2008).
